Laboratory results from IntAct's records for PubMed 33758649.

B1: Protein PALS1 (Homo sapiens), Q8N3R9 (parent)
chain: MTTSHMNGHVTEESDSEVKNVDLASPEEHQKHREMAVDCPGDLGTRMMPIRRSAQLERIRQQQEDMRRRREEEGKKQELDLNSSMRLKKLAQIPPKTGIDNPMFDTEEGIVLESPHYAVKILEIEDLFSSLKHIQHTLVDSQSQEDISLLLQLVQNKDFQNAFKIHNAITVHMNKASPPFPLISNAQDLAQEVQTVLKPVHHKEGQELTALLNTPHIQALLLAHDKVAEQEMQLEPITDERVYESIGQYGGETVKIVRIEKARDIPLGATVRNEMDSVIISRIVKGGAAEKSGLLHEGDEVLEINGIEIRGKDVNEVFDLLSDMHGTLTFVLIPSQQIKPPPAKETVIHVKAHFDYDPSDDPYVPCRELGLSFQKGDILHVISQEDPNWWQAYREGDEDNQPLAGLVPGKSFQQQREAMKQTIEEDKEPEKSGKLWCAKKNKKKRKKVLYNANKNDDYDNEEILTYEEMSLYHQPANRKRPIILIGPQNCGQNELRQRLMNKEKDRFASAVPHTTRSRRDQEVAGRDYHFVSRQAFEADIAAGKFIEHGEFEKNLYGTSIDSVRQVINSGKICLLSLRTQSLKTLRNSDLKPYIIFIAPPSQERLRALLAKEGKNPKPEELREIIEKTREMEQNNGHYFDTAIVNSDLDKAYQELLRLINKLDTEPQWVPSTWLR
partner: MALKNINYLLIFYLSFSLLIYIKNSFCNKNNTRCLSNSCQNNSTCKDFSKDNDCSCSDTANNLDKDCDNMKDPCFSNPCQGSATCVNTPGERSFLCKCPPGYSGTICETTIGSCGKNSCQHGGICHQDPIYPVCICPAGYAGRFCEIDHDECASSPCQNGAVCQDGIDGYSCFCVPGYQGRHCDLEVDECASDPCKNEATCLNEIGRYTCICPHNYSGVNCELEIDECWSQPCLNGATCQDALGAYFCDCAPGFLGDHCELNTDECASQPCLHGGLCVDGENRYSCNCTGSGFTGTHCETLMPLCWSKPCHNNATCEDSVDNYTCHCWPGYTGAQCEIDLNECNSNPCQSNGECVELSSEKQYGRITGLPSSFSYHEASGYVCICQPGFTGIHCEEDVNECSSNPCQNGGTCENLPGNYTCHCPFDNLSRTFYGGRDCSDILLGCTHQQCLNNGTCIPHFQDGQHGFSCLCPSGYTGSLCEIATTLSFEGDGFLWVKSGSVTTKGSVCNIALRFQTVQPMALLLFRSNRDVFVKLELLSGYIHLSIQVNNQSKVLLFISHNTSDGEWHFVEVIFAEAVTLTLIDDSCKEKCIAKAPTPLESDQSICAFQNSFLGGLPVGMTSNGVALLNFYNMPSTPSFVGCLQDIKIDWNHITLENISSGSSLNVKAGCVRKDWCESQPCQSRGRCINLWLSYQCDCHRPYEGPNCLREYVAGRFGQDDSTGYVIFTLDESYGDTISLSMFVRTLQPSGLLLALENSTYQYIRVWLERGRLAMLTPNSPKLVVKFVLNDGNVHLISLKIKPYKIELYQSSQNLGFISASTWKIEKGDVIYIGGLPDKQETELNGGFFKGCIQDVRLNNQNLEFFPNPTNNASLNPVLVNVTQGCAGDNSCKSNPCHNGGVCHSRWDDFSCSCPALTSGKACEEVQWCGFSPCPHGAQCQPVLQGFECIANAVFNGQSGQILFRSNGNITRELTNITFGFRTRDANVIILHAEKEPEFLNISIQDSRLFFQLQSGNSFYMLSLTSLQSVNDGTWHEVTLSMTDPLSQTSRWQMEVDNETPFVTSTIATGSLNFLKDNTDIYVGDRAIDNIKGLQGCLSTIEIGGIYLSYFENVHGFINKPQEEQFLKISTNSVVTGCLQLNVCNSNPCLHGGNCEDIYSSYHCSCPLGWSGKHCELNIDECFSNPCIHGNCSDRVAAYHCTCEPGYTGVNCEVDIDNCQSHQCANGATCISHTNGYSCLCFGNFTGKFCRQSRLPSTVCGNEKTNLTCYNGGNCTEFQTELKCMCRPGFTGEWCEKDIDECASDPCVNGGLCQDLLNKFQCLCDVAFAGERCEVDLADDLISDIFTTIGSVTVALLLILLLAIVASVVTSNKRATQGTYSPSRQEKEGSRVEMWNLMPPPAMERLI

Variants of: B1
Conditions: with crum1_human CRB1, P82279

Row | Variant | effect of a mutation on the interaction
1 | F318W | decreasing interaction strength
